# In patent US10052368B2, “Pegylated tissue kallikrein, and preparation method therefor and uses thereof” (ZONHON BIOPHARMA INSTITUTE INC., priority 2013, dated 2018):
# Tested on: cerebral ischemia reperfusion model of middle cerebral artery obstruction (MCAO)
# Assay: Cerebral ischemia reperfusion model of middle cerebral artery obstruction (MCAO)
# Assay type: in vivo
# Conditions: SD rats, 3 μg/kg once via vena caudalis
# Description: A cerebral ischemia reperfusion model of middle cerebral artery obstruction (MCAO) was established by thread embolizing the internal carotid artery of SD rats (purchased from Shanghai Sippr bk Laboratory Animal Co. LTD.) A positive control 1 group (urinary kallikrein, Guangdong Tianpu Biochemical Pharmaceutical Co., LTD.), a positive control 2 group (tPA, Shanghai Boehringer Ingelheim Pharmaceuticals Co., LTD), a model control group (PBS), a sham group, a kallikrein group (from Changzhou Qianhong Biochemical Pharmaceutical Co., LTD.), a conjugate 1 group, a conjugate 2 group, a conjugate 3 group, and a conjugate 4 group were arranged respectively. Administration by injection through vena caudalis was performed once at 3 μg/kg (calculated according to the protein amount) immediately after the cerebral ischemia reperfusion. Neurologic deficit symptoms were observed 24 h after the reperfusion, and the cerebral infarction area was determined. In the model group, an equal volume of PBS was injected through vena caudalis into the rat. In the sham group, only blood vessels were separated, no embolizing thread was inserted, and an equal volume of PBS was injected through vena caudalis into the rats. Neurologic deficit symptoms were evaluated employing an improved Bederson 5-point system method. Neurologic deficit symptoms of the rats after brain trauma were evaluated by a single-blind method, i.e., the animals were marked according to groups by designers of the experiment, and scores of the neurologic deficit symptoms were given by experimenters blind to the grouping situation. The cerebral infarction area was calculated employing the following method. Cerebrums of the SD rats were stained with TTC (2,3,5-triphenyltetrazolium chloride) and then the photographs were subjected to statistics using an image analysis software, and the percentage of cerebral infarction area was calculated according to the following formula: % cerebral infarction area=100×(total ischemic area/total area on the right side)
molecule,measurement,setting,value
"Positive control 2: tPA, Shanghai Boehringer Ingelheim Pharmaceuticals (protein, UniProt P00750 36-562, looked up) Tissue-type plasminogen …: SYQVICRDEKTQMIYQQHQSWLRPVLRSNRVEYCWCNSGRAQCHSVPVKSCSEPRCFNGGTCQQALYFSDFVCQCPEGFAGKCCEIDTRATCYEDQGISYRGTWSTAESGAECTNWNSSALAQKPYSGRRPDAIRLGLGNHNYCRNPDRDSKPWCYVFKAGKYSSEFCSTPACSEGNSDCYFGNGSAYRGTHSLTESGASCLPWNSMILIGKVYTAQNPSAQALGLGKHNYCRNPDGDAKPWCHVLKNRRLTWEYCDVPSCSTCGLRQYSQPQFRIKGGLFADIASHPWQAAIFAKHRRSPGERFLCGGILISSCWILSAAHCFQERFPPHHLTVILGRTYRVVPGEEEQKFEVEKYIVHKEFDDDTYDNDIALLQLKSDSSRCAQESSVVRTVCLPPADLQLPDWTECELSGYGKHEALSPFYSERLKEAHVRLYPSSRCTSQHLLNRTVTDNMLCAGDTRSGGPQANLHDACQGDSGGPLVCLNDGRMTLVGIISWGLGCGQKDVPGVYTKVTNYLDWIRDNMRP",amelioration of cerebral infarction status of the model animals (in words),,no apparent amelioration
same,Cerebral infarction area (%),"24 h after reperfusion, TTC staining",31.55 ± 2.71%
same,Score of neurologic deficit symptom,"24 h after reperfusion, improved Bederson 5-point system",3.00 ± 0.20
